Experimental data taken from US12447133B2, “Composition and device for preventing hypoglycemia and use thereof” (THE GOVERNING COUNCIL OF THE UNIVERSITY OF TORONTO, priority 2018, dated 2025).

What was measured:
[1] = Stability of released glucagon (far-UV CD and RP-HPLC); format: physicochemical
Method: The effect of glucose concentration on microgel size was characterized using dynamic light scattering (DLS, Malvern Zetasizer Nano-ZS). Adjustment of pH was made using NaOH or HCl. Dimensions and surface morphology of freeze-dried microgels were examined by scanning electron microscopy (SEM/EDX) at an acceleration voltage of 20 kV. Transmission electron microscopy (TEM) images were performed on a Hitachi H-7500 transmission electron microscope operated at 80 kV. In addition, Rhodamine-B (Rh-B) labelling was applied to track the distribution of microgels within the microneedle array. The microgels were first immersed in 10 μg/mL of Rh-B for 12 hours at room temperature and then washed with DI-water three times. […] Glucagon and its degradation products were assayed using a reversed-phase high-performance liquid chromatography (RP-HPLC) system (Waters, MA, USA) equipped with a binary pump, autosampler, and UV detector (2899 Photodiode Detector Array, Waters, MA, USA). ^1H-NMR, and ^11B-NMR spectra were recorded in dimethyl sulfoxide (DMSO) and deuterium oxide (D2O) with a Bruker AM 400 spectrometer (400 MHz). […] Glucagon released from microgels or MNs were collected and measured using a CD spectropolarimeter (Jasco J-810, MD, USA) equipped with a Peltier temperature module set to 25° C. […]

[2] = tested on: STZ-induced type 1 diabetic male Sprague Dawley rats; experiment: Antidiabetic effect of S.C. microgel injection in type 1 diabetic rats; format: in vivo, rat
Method: Male Sprague Dawley rats (Charles River) were treated with 65 mg/kg streptozotocin (STZ) to induce type 1 diabetes. The rats receiving STZ were carefully monitored for 1 week during which time the blood sugar was measured in 2 day intervals using a glucose meter (OneTouch® Ultra®, LifeScan, Inc., USA). Diabetic rats with blood sugar stabilized above 17 mmol/L were selected for the study. All rats were fasted for 4 hours prior to the experiment to eliminate the possible confounding effect of food (BERNICE […], 1965). The blood glucose levels of the diabetic rats were monitored every 15 minutes throughout the experiment. […] The blood glucose levels were measured every 15 min after injection and stopped whenever they were above/bellow euglycemia threshold.

Row | Substance | secondary structure of released glucagon (far-UV CD, peaks at 208 and 222 nm) ([1]; released at 50 mg/dL glucose, compared to fresh native glucagon) | degradation products of released glucagon (RP-HPLC) ([1]; released from composite patch, compared to fresh glucagon) | time after which blood glucose increased back to hyperglycemia ([2]; 0.5 IU/kg insulin S.C.) [h] | occurrence of hypoglycemia ([2]; 1 IU/kg insulin S.C.) | time to reach euglycemia post-injection ([2]; 1 IU/kg insulin S.C.) [min]
1 | glucagon | preserved | no detectable degradants | – | – | –
2 | insulin | – | – | 3 | fell even further below the hypoglycemic threshold | ≤ 45
